Assay results as given in patent US20250134019A1, “TRIKETONE DIOXYGENASE VARIANTS FOR HERBICIDE TOLERANCE” (Monsanto Technology LLC, priority 2022, published 2025).

What was measured:
Assay type in all cases: in vivo
[1] = system: transgenic soybean plants; test: Mesotrione tolerance assay of Os.TDO transgenic soybean events (Construct 32); details: for injury rate: sprayed at V1, rated 13 days after treatment
From the text: Mesotrione herbicide rate is expressed as grams active ingredient per hectare (g a.i./ha); 1X commercial rate=105 g a.i./ha. […] Plants at V1 growth stage were sprayed with mesotrione (in Callisto®, Syngenta in 1% crop oil) at 1X, 2X, 4X, 8X, and 16X of commercial rate (equivalent to 105, 210, 420, 840, and 1680 g a.i./ha, respectively). Crop injury ratings were taken 13 days after mesotrione treatment.
Os.TDO transgenic event-125 and wild-type control plants were sprayed with 2X of commercial rate of mesotrione (Callisto, 210 g a.i./ha), tembotrione (Laudis, 184 g a.i./ha) and sulcotrione (Sulcogan, 660 g a.i./ha). Each bar represents the mean of injury rating of 8 reps +/−SE. * indicates significant difference vs corresponding control at p<0.01.
The Os.TDO sequence was cloned into a set of binary vectors using standard cloning methods known in the art with its expression driven by different constitutive promoters and different 3′UTRs. Transgenic soybean plants comprising these constructs were developed using an Agrobacterium-mediated transformation system as described in Larue et al. (2020). The copy number of the transgene was determined via a Taqman assay and events with a single copy of the T-DNA insertion were selected for evaluation of mesotrione tolerance. Briefly, R2 and later generation homozygous lines of three soybean transgenic events derived from Construct 32 were selected for a mesotrione tolerance greenhouse assay. Construct 32 contained two expression cassettes between the T-DNA borders: one for expression of Os.TDO and the other for expression of a selectable marker. The Os.TDO cassette utilized the cauliflower mosaic virus (CaMV) 35S promotor and the 5′ UTR of HSP70 from petunia to drive expression of Os.TDO, followed by the 3′ UTR of the nopaline synthase (nos) gene from the T-DNA region of the Ti plasmid of Agrobacterium tumefaciens, which functions to direct polyadenylation of the mRNA. The selectable marker cassette conferring spectinomycin and streptomycin resistance comprises the promoter, intron, and leader sequences from the Arabidopsis thaliana actin 7 gene, the transit peptide region of Arabidopsis thaliana EPSPS, the coding region of the Tn7 adenylyltransferase (AAD (3″)) gene from E. coli, and the 3′ non-translated region from the Agrobacterium tumefaciens nopaline synthase gene.
Each plant was grown in a 3.5″ pot with soybean potting media in a growth chamber under conditions of 28° C./24° C. (light/dark) and a photoperiod of 16 hr light at 700 μE/8 hr dark, and fertilized with Peters general purpose fertilizer. Eight plants at V1 growth stage were sprayed with mesotrione (in Callisto®, Syngenta in 1% crop oil) at 1X, 2X, 4X, 8X, and 16X of commercial rate (equivalent to 105, 210, 420, 840, and 1680 g active ingredient/ha, respectively). Crop injury ratings were taken 13 days after mesotrione treatment.

[2] = system: transgenic soybean plants; test: Mesotrione injury of R0 transgenic soybean plants expressing TDO homologs; details: promoter Constitutive 2, 3' UTR B; 210 g a.i./ha mesotrione at V3-V4, rated 7-14 days after treatment; mean of all tested events
Protocol: Plant expression vectors comprising the selected TDO homologs under the control of one of two constitutive promoters were transformed into soybean via an Agrobacterium tumefaciens-mediated method. Following Agrobacterium transformation, R0 transgenic soybean plants containing a single copy of the transgene were identified through molecular characterization and segregation analysis. Transgenic and wild-type (control) plants were grown in 6-inch pots filled with BM7 soilless mix in a growth chamber under the conditions of 28° C./23° C. (light/dark) and a 16 hr light/8 hr dark photoperiod. Plants were fertilized with 15-5-15 liquid fertilizer at the V3-V4 growth stage and treated with 210 g a.i./ha mesotrione (1X=105 g a.i./ha; Callisto®, Syngenta in 1% crop oil). Plants were visually rated 7-14 days after treatment on a scale of 0% to 100%, with 0%=no injury and 100%=plant death, relative to the wild-type controls. The results summarized in Table 2 represent the mean of all tested events (10-15) for each construct.

[3] = system: transgenic cotton plants; test: Mesotrione treatment of cotton plants expressing TDO variants, crop injury; details: Under 80° F., R2 cotton sprayed at V3
Protocol: Cotton is a crop of interest that is often exposed to high temperature growing conditions and thus, selected TDO variants were tested in cotton. Three TDO variants, D08, TDO_6, and TDO_8 were transformed into cotton (along with the Os.TDO control) using similar expression elements in single-cassette vectors or as part of multi-cassette vectors. R2 transgenic cotton plants were then screened for tolerance to mesotrione. Sixteen plants from two events each per construct were sprayed with two rates (2X and 8X) of mesotrione at V3 stage under normal (80° F.) and hot (100° F.) growing conditions. In addition, the effect of heat treatment on TDO accumulation in cotton plants were measured by ELISA. Cotton plants were planted and grown under normal greenhouse conditions (80° F. day/70° F. night) until V3 growth stage. Half of the plants were then moved to a higher temperature growth chamber (100° F. day/82° F. night) for the heat treatment, whereas the remaining half of the plants stayed in the same greenhouse (80° F. day/70° F. night). At day 3 after the plants were placed under different temperature conditions, leaf samples were collected for TDO protein measurement. The plants in 100° F. growth chamber and in 80° F. greenhouse were both sprayed with 2X mesotrione (210 g a.i./ha). Leaf samples were collected again 7 days after mesotrione treatment (DAT: Days After Treatment) for protein assay. Table 5 compares protein levels of the TDO variants in transgenic cotton plants grown under the two tested conditions. The protein levels for the TDO variants were measured at three time points for plants: 1) just before entering the high temperature treatment, 2) three days following placement into control (normal growth temperature) or high temperature (100° F.), and 3) 7 days after a 2X mesotrione spray.

B1: Os.TDO: TDO from Oryza sativa (HIS1), SEQ ID NO:2, polynucleotide codon optimized for dicot expression (protein, listed as Oryza sativa)
chain: MADESWRAPAIVQELAAAGVEEPPSRYLLREKDRSDVKLVAAELPEPLPVVDLSRLDGAEEATKLRVALQNWGFFLLTNHGVEASLMDSVMNLSREFFNQPIERKQKFSNLIDGKNFQIQGYGTDRVVTQDQILDWSDRLHLRVEPKEEQDLAFWPDHPESFRDVLNKYASGTKRIRDDIIQAMAKLLELDEDYFLDRLNEAPAFARFNYYPPCPRPDLVFGIRPHSDGTLLTILLVDKDVSGLQVQRDGKWSNVEATPHTLLINLGDTMEVMCNGIFRSPVHRVVTNAEKERISLAMLYSVNDEKDIEPAAGLLDENRPARYRKVSVEEFRAGIFGKFSRGERYIDSLRI
tolerance to sulcotrione ([1]; 2X commercial rate sulcotrione (Sulcogan, 660 g a.i./ha), event-125): provided tolerance | tolerance to tembotrione ([1]; 2X commercial rate tembotrione (Laudis, 184 g a.i./ha), event-125): provided tolerance | injury rate ([1]; mesotrione 16X (1680 g a.i./ha)): below 15% | injury rate ([1]; mesotrione at 8X or lower rate (1X=105 g a.i./ha), three transgenic events): lower than 10% | tolerance to mesotrione ([1]; up to 16X of commercial application rate (1X=105 g a.i./ha)): excellent tolerance | % Injury [2]: 12% | Crop Injury (%), 210 g/ha (2X) Mesotrione [3]: 0% | Crop Injury (%), 840 g/ha (8X) Mesotrione [3]: 0%
